A short description of this data set: soluble on expression in E. coli; label from the status in PepcDB or PDB records.
As for “SASTGSQASDIDEIFGFFNDGEPPTKKPRKLLPSLKTKKPRELVLVIGTGISAAVAPQVPALKSWKGLIQALLDAAIDFDLLEDEESKKFQKCLHEDKNLVHVAHDLIQKLSPRTSNVRSTFFKDCLYEVFDDLESKMEDSGKQLLQSVLHLMENGALVLTTNFDNLLELYAADQGKQLESLDLTDEKKVLEWAQEKRKLSVLHIHGVYTNPSGIVLHPAGYQNVLRNTEVMREIQKLYENKSFLFLGCGWTVDDTTFQALFLEAVKHKSDLEHFMLVRRGDVDEFKKLRENMLDKGIKVISYGDDYADLPEYFKRLTCEISTRGTSAGMVREGQLNGSSAAHSEIRGCST”, the “soluble on expression in E. coli” value is reported as “soluble”.
As to “MSLDCKIDIIPRVLHFKQPAGTSRGTYTTRKVWYLHFTAPEFPNWVGIGECAPLPNLSCDDLPDYEEVLAKICRQVENQGGKLDMEALCKYPSILFGLETAIRHFFEGSWALWDTPFSRGEAGIPINGLIWMGDFNRMLAQIEKKMEAGFRCIKLKIGAINFEEELALLQHIRSHYSSKEIELRVDANGAFSPTDAMEKLKRLSELDLHSIEQPIRAGQWEEMARLTSESPLPIALDEELIGYNTWEEKQRLLSAIRPQYIIIKPSLHGGLAGGEEWIAEAEKLNIGWWITSALESNIGLNAIAQWCATFQNPLPQGLGTGLLFTDNVEMPLEIRKDCLWFCKEGHHHHHH”, the “soluble on expression in E. coli” value is recorded as “soluble”.
“MSLAQFVDWDLAAATAGTLGKTGPRVSYVEATAVVGDLRQLTDEAAEHVADFTGLRSQVSHPPVQVVDRRDWAATNVAGLREMIGPLVGRLAGDKQPSVLTEAIGSRITGVQAGTVLAYLSGRVLGQYEVFSGEPGQLLLIAPNIVEVERKLAADPRDFRMWVCLHEVTHRTQFTAVPWLRAYFLGEVQAFVDASSSGGEPLVERLRRGITVLADAVREPAGRTSVLDIVQTPAQKAVLDRLTALMTLLEGHAEFVMDGVGPQVIPSVERIRASFNRRRESGNPLEKALRRLLGVEVKLRQYAEGRSFVHGVVERVGMEGFNRVFASPLTLPRLAELSDPDAWVARVHGPAGPLPAGDEGHHHHHH”: the “soluble on expression in E. coli” value is recorded as “soluble”.
In the case of “MILTEQEKAEVEANRRRYEQHKALGQQQAPKALPPPTPRDGAPIAPESIIHRETVPGGWYYVTKLGRGEAVRIINTSGTSCVSIQAWNALDPSERLNHADTIKVQWAASLRKGRVILSDMGRALLSIIEDTSGAHDTMVGGSNAATNAERYGVGSFRNARDNFVLAAGKLGLDRRDVHPSIALFAPVAVDSQGRFEWHGERRHKGDFVDLRAELDLLIAVSNCPHPLDPSPSYAPGDIELIRYQAPQPASDDLCRTVSLEAKRAFENNAFYLAGAAGRALEHHHHHH”, the “soluble on expression in E. coli” value is recorded as “soluble”.
As for “MYSYKHPIYCANPVLSGQKIIELPPMNVPFSTYYEVYVTVQDHIPISSFVSMDLIMKNDNYSGGNFQVYSKDVSGILASHSNHFSPVTYSMQLQYEYKNWAEEDTQVRVYSDRLPPYWLPYCD”, the “soluble on expression in E. coli” value is listed as “not soluble”.
The entry for “MSKIDFHTHYLPTSYVEALKRHVPGDPDGWPTPEWTPQLTLNFMRDNDISYSILSLSSPHVNFGDKAETIRLVEAANDDGKSLAQQYPDQLGYLASLPIPYELDAVKTVQQALDQDGALGVTVPTNSRGLYFGSPVLERVYQELDARQAIVALHPNEPAILPKNVDIDLPVPLLGFFMDTTMTFINMLKYHFFEKYPNIKVIIPHAGAFLGIVDDEIAQYAQKVYQVDVYDVMHHVYFDVAGAVLPRQLPTLMSLAQPEHLLYGSDIPYTPLDGSRQLGHALATTDLLTNEQKQAIFYDNAHRLLTELEHHHHHH” is “not soluble”; for “MISVTDLRPGTKVKMDGGLWECVEYQHQKLGRGGAKVVAKFKNLETGATVERTFNSGEKLEDIYVETRELQYLYPEGEEMVFMDLETYEQFAVPRSRVVGAEFFKEGMTALGDMYEGQPIKVTPPTVVELKVVDTPPGVRGDTVSGGSKPATLETGAVVQVPLFVEPGEVIKVDTRTGEYVGRA” it is “soluble”; for “MSQAFTESVKTSLGPNATPRAKKLIASLVQHVHDFARENHLTTEDWLWGVDFINRIGQMSDSRRNEGILVCDIIGLETLVDALTNESEQSNHTSSAILGPFYLPDSPVYPNGGSIVQKAIPTDVKCFVRGKVTDTEGKPLGGAQLEVWQCNSAGFYSQQADHDGPEFNLRGTFITDDEGNYSFECLRPTSYPIPYDGPAGDLLKIMDRHPNRPSHIHWRVSHPGYHTLITQIYDAECPYTNNDSVYAVKDDIIVHFEKVDNKDKDLVGKVEYKLDYDISLATESSIQEARAAAKARQDAEIKL” it is “soluble”.
The entry for “SPQRKVANNKQNIEYNDDNHVHHMHSHNPPIDCAILLPSKPRFIFQDVTVFNFNVSGNPSDLNTPVVQFNLSFRNPNANIRIYYDTLDVYAFYGNGSQQIIIPTPMPSTYQGHKEDSVWSPYIPVVPYNALYLDDQHHSRDGNMLMLHLDGRISWLLLGN” is “soluble”; for “MNSSPAGTPSPQPSRANGNINLGPSANPNAQPTDFDFLKVIGKGNYGKVLLAKRKSDGAFYAVKVLQKKSILKKKEQSHIMAERSVLLKNVRHPFLVGLRYSFQTPEKLYFVLDYVNGGELFFHLQRERRFLEPRARFYAAEVASAIGYLHSLNIIYRDLKPENILLDCQGHVVLTDFGLCKEGVEPEDTTSTFCGTPEYLAPEVLRKEPYDRAVDWWCLGAVLYEMLHGLPPFYSQDVSQMYENILHQPLQIPGGRTVAACDLLQSLLHKDQRQRLGSKADFLEIKNHVFFSPINWDDLYHKRLTPPFNPNVTGPADLKHFDPEFTQEAVSKSIGCTPDTVASSSGASSAFLGFSYAPEDDDILDC” it is “soluble”.
The entry for “MGSDKIHHHHHHGCSDDFKSGLRLDGDVWVNSIRLDEYAGTVDYQNKAIVVGVPYDYDITRMVVTEMNLSEGAKASIAIGETIDFSLPVSLTVKNGDVQMSYTITVKRDEAKILTFKLNDTYVGKVDQLSKTISVVVPLTVDITQLKGTFTVTDGATVTPASGSIQDFTNPVTYTATYRSAVTPYVVTVTQGNVIPTAFVGTASSVSLLTSPEEKAAAQWMMDNVSMSEYISFKDVVDGKVDLGKYTAIWWHFHADNGDNPPLPDDAKAAAEKFKVYYQNGGNLLLTRYATFYIANLGIAKDERVPNNSWGGNEDSPEITSAPWSFLITGSESHPLFQDLRWKDGDKSTVYTCDAGYAITNSTAQWHIGTDWGGYDDLNAWRNLTGGIDLAHGGDGAVVIAEFEPRSNSGRTLCIGSGCYDWYGKGVDASADYYHYNVEQMTLNAINYLCK” is “not soluble”; for “MFTTVITPRVSETDGVGHINNTTVPVWFEAGRHEIFKLFTPDLSFKRWRMVIIRMEVDYVNQMYYGQDVTVYTGIERIGNTSLTIYEEIHQNGVVCAKGRSVYVNFNFDTGRPEPIPDDIRVKLREHVWQPGE” it is “soluble”; for “PKQVGNAQHLYDNYDLVPAMIAEVNPRDMVVMALVNTNVDPTLPPRWALATRNITAIPGIEGDTRKVGTRIPAVAVTGQRSVGNQDSWDQISPMPIAWATPDSSVIARAESTIPSEQWTTLSKNLNKLDQVRETKFDLLEL” it is “soluble”.
As to “MNRLPNIAKPPQKSNQRKEKAPPEVPALIADKDRGTYYEKGRFLGKGGFAHCYELTNRATREVVAGKVVPKSMLVKQYQRDKMTQEVQIHRELGHINIVKLFNFFEDNLNVYITLELCARRSLMELHKRRKAVTEPEARYFTHQIVDGVLYLHDLNIIHRDMKLGNLFLNDDLVVKIGDFGLATTVNGDERKKTLCGTPNYIAPEVLNKAGHSFEVDIWAVGCILYILLFGQPPFESKSLEETYSRIRHNNYTIPSIATQPAASLIRKMLDPEPTRRPTAKQVQRDGFFKSGFMPTRLPVSCLTMVPKFGGHETSMMEENVAPRGVDARSQRPLNGRAGLSALPQHIVSNNADRERAQQQAAEATFREPEDAYLSQLFHQVAVLLEQRIPGLEEEEAALDGYQSPECLPVFWISKWVDYSDKYGIGYQLCDNSVGVLFNDNSRIMLDQAGNELTYIEKSNKEHYFSMHSGEMPGLLNKKVTLLKYFRSYMNDHLVKAGEGSEQRAGDDLARLPTLRVWFRTKSAIVLHLSNGTVQINFFNDHVKMMMCPLMQAVTFIDQNKRMLTYKLNNLQRNGCPEKFLHRLKYAKTMIERLMSDANVVSQNPARQPDMPRSMAAARSASAGSRGPNQAASHLPQSASGSNIHPRR”, the “soluble on expression in E. coli” value is listed as “not soluble”.

For the origin of these results see the DeepSol protein solubility set.
